Experimental data taken from paper PMC3206353 (The Journal of Cell Biology, 2011).

How the values were obtained:
[1] = target: pyrene-labeled ADP-actin filaments (chicken breast muscle actin) (chicken, UniProt P68139 1-377, pyrene (pyrene iodoacetamide) on cysteine-374); assay: other fluorescence titration
[2] = target: Mg-ATP-actin monomer (chicken breast muscle actin) (chicken, UniProt P68139 1-377); assay: inhibition of nucleotide exchange

B1: cofilin-M3 (natural protein)
chain: MSFSGVKVSPECLEAFQELKLGKSLRYVVFKMNDTKTEIVVEKKSTDKDFDTFLGDLPEKDCRYAIYDFEFNLGEGVRNKIIFISWSPDVAPIKSKMVYSSSKDTLRRAFTGIGTDIQATDFSEVAYETVLAAVTRK
In the case of B1, the “Ka of the cooperative model (Kd = 1/(ω*Ka))” value [1] is reported as 0.08 µM⁻¹, the Kd [1] is reported as 890 nM and the Kd [2] is reported as 170 nM.
